{"source": "patent US20190077858A1", "about": "(KM BIOLOGICS, published 2019)", "binders": {"B1": {"name": "IgG molecule-type 4A6D (antibody, V domains shown)", "VH": "EVQLVESGGGLVQPGGSMRLSCTASGFTFDEYAMSWVRQAPGKGLEWVSGISTGGGGTYYADSVEGRFTISRDNSKNTLYLQMNSLRAEDTAVYYCAKPWLSGSRSGDFWGQGTLVTVSS", "VL": "QSALTQPASVSGSPGQSITISCTGTSSDVGGYNYVSWYQQHPGKAPKLLIYEVSHRPSGVSDRFSGSKSGNTASLTISGLQAEDEADYYCSSFTSSSSLYVFGTGTKLTVL", "notes": "detected with anti-hFc, so human constant regions; also called human anti-human IL-18 antibody 4A6D"}}, "key": {"[1]": {"target": "T1, human IL-18 (MBL Medical & Biological Laboratories, Co., Ltd.) (human, UniProt Q14116 37-193, biotinylated (Biotin-PEAC5-maleimide or Biotin-AC5 Sulfo-OSu) in the streptavidin plate ELISAs and the panning; not labelled in the receptor binding and KG-1 assays)", "T1 sequence (looked up)": "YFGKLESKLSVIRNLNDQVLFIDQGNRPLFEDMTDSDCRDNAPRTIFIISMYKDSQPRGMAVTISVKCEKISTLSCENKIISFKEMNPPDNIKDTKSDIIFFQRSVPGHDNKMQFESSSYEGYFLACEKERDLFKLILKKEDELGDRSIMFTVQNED", "assay": "cell-based or functional assay"}, "[2]": {"target": "T2, K53A variant of human IL-18 (human, UniProt Q14116 37-193, K53A, biotinylated)", "T2 construct": "On the precursor entry the residue at 53 may not be K; the numbering is likely that of mature IL-18", "T2 sequence (looked up)": "T1 sequence (looked up) with K53A", "assay": "ELISA on immobilised biotinylated K53A IL-18, antibody at 1 µg/mL", "description": "Next, these human IL-18 proteins were biotinylated, then each diluted to 1 μg/mL with PBS (Sigma-Aldrich Corp.), added at 100 μL/well to Streptavidin plates (Nunc), and incubated at room temperature for 2 hours to immobilize them. After the immobilization, the plates were washed with PBST, and human IL-18BPa-hFc (R&D Systems, Inc.) or the IgG molecule-type 4A6D was prepared at 1 μg/mL with 1% BSA-PBS, added at 100 μL/well to the plates, and incubated at 37° C. After 1 hour, the plates were washed with PBST, and a detection antibody anti-hFc/HRP (Cosmo Bio Co., Ltd., The binding site) was added at 100 μL/well to the plates and incubated at 37° C. After 1 hour, the plates were washed with PBST, and TMB (Sigma-Aldrich Corp.) was added at 100 μL/well to the plates to develop color. After 30 minutes, the reaction was terminated with 1 M sulfuric acid, and the color values (O.D. 450 nm/650 nm) were measured using a microplate reader (Molecular Devices, Inc.)."}, "[3]": {"target": "T1, human IL-18 (MBL Medical & Biological …)", "assay": "ELISA, biotinylated human IL-18 on streptavidin plate, HRP detection antibody, O.D. 450nm/650nm", "description": "The binding activity of the obtained scFv phages, scFv, and IgG prepared by a standard method (conventional method) was evaluated by ELISA. The biotinylated human IL-18 or the biotinylated mouse IL-18 was diluted to 1 μg/mL with PBS (Sigma-Aldrich Corp.), added at 100 μL/well to Streptavidin plates (Nunc), and incubated at room temperature for 2 hours to immobilize the IL-18. After the immobilization, the plates were washed with PBST, and each obtained scFv phage, scFv, or IgG was added at 100 μL/well to the plates and incubated at 37° C. After 1 hour, the plates were washed with PBST, and a detection antibody anti-M13/HRP (GE Healthcare Japan Corp.), anti-His tag/HRP (Bethyl Laboratories, Inc.), anti-V5 tag/HRP (Bethyl Laboratories, Inc.), anti-mouse IgG/HRP (Invitrogen Corp.), or anti-hFc/HRP (Cosmo Bio Co., Ltd., The binding site) was added at 100 μL/well to the plates and incubated at 37° C. After 1 hour, the plates were washed with PBST, and TMB (Sigma-Aldrich Corp.) was added at 100 μL/well to the plates to develop color. After 30 minutes, the reaction was terminated with 2 N sulfuric acid, and the color values (O.D. 450 nm/650 nm) were measured using a microplate reader (Molecular Devices, Inc.)."}, "[4]": {"target": "T1, human IL-18 (MBL Medical & Biological …)", "assay": "blocking ELISA: human IL-18 with IL-18Rα-hFc-His and the antibody added to plate-bound IL-18Rβ-hFc, anti-His tag/HRP; blocked partner: IL-18 receptor", "description": "IL-18Rβ-hFc (R&D Systems, Inc.) was added at 100 μL/well at a concentration of 1 μg/mL to Covalink plates (Nunc) and incubated at room temperature for 1 hour and then incubated overnight at 4° C. On the next day, the plates were washed with PBS (phosphate buffered saline) and blocked with 1% BSA (bovine serum albumin)-PBS. Human IL-18 (MBL Medical & Biological Laboratories, Co., Ltd.) was prepared at a concentration of 0.5 μg/mL with 1% BSA-PBS, and IL-18Rα-hFc-His (R&D Systems, Inc.) was prepared at a concentration of 2 μg/mL with 1% BSA-PBS. Both of the solutions were mixed (50 μL each). The obtained anti-IL-18 antibody was further added to the IL-18/IL-18Rα-hFc-His mixed solution. This mixed solution was added to the IL-18Rβ-hFc-immobilized Covalink plates and incubated at 37° C. for 1 hour. After 1 hour, the plates were washed with PBST (phosphate buffered saline-Tween 20), and a detection antibody anti-His tag/HRP (Bethyl Laboratories, Inc.) was added at 100 μL/well to the plates and incubated at 37° C. After 1 hour, the plates were washed with PBST, and TMB (Sigma-Aldrich Corp.) was added at 100 μL/well to the plates to develop color. After 30 minutes, the reaction was terminated with 2 N sulfuric acid, and the color values (O.D. 450 nm/650 nm) were measured using a microplate reader (Molecular Devices, Inc.)."}}, "note": "Positions count from the first letter of the chain named.", "data": [{"binder": "B1", "values": [{"measurement": "Neutralizing ability (IC50, nM)", "setting": "[1]", "result": 0.007, "unit": "nM"}, {"measurement": "binding result", "setting": "[2]", "result": "binds"}, {"measurement": "EC50 (read off the curve)", "setting": "[3]", "result": "~0.02", "unit": "µg/mL"}, {"measurement": "IC50 (read off the curve)", "setting": "[4]", "result": "~0.3", "unit": "µg/mL"}]}]}
